Measured values taken from US20210388337.

Tests used:
Assay in all cases: stopped-flow tryptophan fluorescence, avidin 0.5 µM, biotin-protein 5.0 µM
[1] = molecular target: Avidin-pCBMA109, P02701
[2] = molecular target: Avidin-pCBMA56, P02701
[3] = molecular target: Avidin-pCBMA232, P02701
[4] = molecular target: Avidin-pCBMA152, P02701
[5] = molecular target: Avidin-pCBMA58, P02701
[6] = molecular target: Avidin-pCBMA182, P02701
[7] = molecular target: Avidin-pCBMA170, P02701
[8] = molecular target: Native avidin, P02701
[9] = molecular target: Avidin-pCBMA121, P02701
Chain of Avidin-pCBMA121, P02701 (P02701 25-152): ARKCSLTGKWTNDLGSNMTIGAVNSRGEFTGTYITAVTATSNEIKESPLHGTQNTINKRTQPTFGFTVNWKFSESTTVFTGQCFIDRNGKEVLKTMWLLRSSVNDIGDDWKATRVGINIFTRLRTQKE

Chain of Native avidin, P02701 (P02701 25-152): as above
Chain of Avidin-pCBMA182, P02701 (P02701 25-152): as above
Chain of Avidin-pCBMA232, P02701 (P02701 25-152): as above
Chain of Avidin-pCBMA58, P02701 (P02701 25-152): as above
Chain of Avidin-pCBMA152, P02701 (P02701 25-152): as above
Chain of Avidin-pCBMA109, P02701 (P02701 25-152): as above
Chain of Avidin-pCBMA56, P02701 (P02701 25-152): as above
Chain of Avidin-pCBMA170, P02701 (P02701 25-152): as above

B1: Biotin-HRP (protein)
chain: QLTPTFYDNSCPNVSNIVRDTIVNELRSDPRIAASILRLHFHDCFVNGCDASILLDNTTSFRTEKDAFGNANSARGFPVIDRMKAAVESACPRTVSCADLLTIAAQQSVTLAGGPSWRVPLGRRDSLQAFLDLANANLPAPFFTLPQLKDSFRNVGLNRSSDLVALSGGHTFGKNQCRFIMDRLYNFSNTGLPDPTLNTTYLQTLRGLCPLNGNLSALVDFDLRTPTIFDNKYYVNLEEQKGLIQSDQELFSSPNATDTIPLVRSFANSTQTFFNAFVEAMDRMGNITPLTGTQGQIRLNCRVVNSNS
Q: Which k (kobs, observed first-order rate constant) [1] does the source give for B1 here?
A: The k (kobs, observed first-order rate constant) was 0.026 s⁻¹.

Q: What about the k (kobs, observed first-order rate constant) [2] of the same protein?
A: Its k (kobs, observed first-order rate constant) is 0.261 s⁻¹.

Q: And the k (kobs, observed first-order rate constant) [3]?
A: Its k (kobs, observed first-order rate constant) is 0.196 s⁻¹.

Q: And the k (kobs, observed first-order rate constant) [4]?
A: The k (kobs, observed first-order rate constant) was 0.025 s⁻¹.

Q: What about the k (kobs, observed first-order rate constant) [5] of the same protein?
A: The k (kobs, observed first-order rate constant) was 0.028 s⁻¹.

Q: And the k (kobs, observed first-order rate constant) [6]?
A: The k (kobs, observed first-order rate constant) was 0.025 s⁻¹.

Q: What about the k (kobs, observed first-order rate constant) [7] of the same protein?
A: The k (kobs, observed first-order rate constant) was 0.209 s⁻¹.

Q: And the k (kobs, observed first-order rate constant) [8]?
A: The k (kobs, observed first-order rate constant) was 5.03 s⁻¹.

Q: What about the k (kobs, observed first-order rate constant) [9] of the same protein?
A: Its k (kobs, observed first-order rate constant) is 0.218 s⁻¹.
